Experimental data reported in paper PMC4450770 (2016).

Target: tetraubiquitin chain (Homo sapiens, UniProt P0CG48, tetraubiquitin chain, N-terminal Dylight550-labeled ubiquitin)
Experiment: single-molecule TIRF dwell time

B1: 26S proteasome (protein)
chain 1: MVLESTMVCVDNSEYMRNGDFLPTRLQAQQDAVNIVCHSKTRSNPENNVGLITLANDCEVLTTLTPDTGRILSKLHTVQPKGKITFCTGIRVAHLALKHRQGKNHKMRIIAFVGSPVEDNEKDLVKLAKRLKKEKVNVDIINFGEEEVNTEKLTAFVNTLNGKDGTGSHLVTVPPGPSLADALISSPILAGEGGAMLGLGASDFEFGVDPSADPELALALRVSMEEQRQRQEEEARRAAAASAAEAGIATTGTEDSDDALLKMTISQQEFGRTGLPDLSSMTEEEQIAYAMQMSLQGAEFGQAESADIDASSAMDTSEPAKEEDDYDVMQDPEFLQSVLENLPGVDPNNEAIRNAMGSLASQATKDGKKDKKEEDKK
chain 2: TTSGALFPSLVPGSRGASNKYLVEFRAGKMSLKGTTVTPDKRKGLVYIQQTDDSLIHFCWKDRTSGNVEDDLIIFPDDCEFKRVPQCPSGRVYVLKFKAGSKRLFFWMQEPKTDQDEEHCRKVNEYLNNPPMPGALGASGSSGHELSALGGEGGLQSLLGNMSHSQLMQLIGPAGLGGLGGLGALTGPGLASLLGSSGPPGSSSSSSSRSQSAAVTPSSTTSSTRATPAPSAPAAASATSPSPAPSSGNGASTAASPTQPIQLSDLQSILATMNVPAGPAGGQQVDLASVLTPEIMAPILANADVQERLLPYLPSGESLPQTADEIQNTLTSPQFQQALGMFSAALASGQLGPLMCQFGLPAEAVEAANKGDVEAFAKAMQNNAKPEQKEGDTKDKKDEEEDMSLD
- Kd: 0.21 µM
